A word on the Ki: it is a measure of affinity in units of concentration, obtained from inhibition or displacement.

Here are results for 59 molecules from patent publication US20260193293A1, “PEPTIDES CAPABLE OF INHIBITING PROTEIN-PROTEIN INTERACTIONS AT GABAB1A SUBUNIT AND USES THEREOF” (UNIVERSITY OF COPENHAGEN, priority 2022, published 2026).

Non-standard residues stand in square brackets, D forms with d. 2Nal = N[C@@H](Cc1ccc2ccccc2c1)C(=O)O

Sequences and labels used below:
B1: … (peptide)
peptide: Ac-EDDSDVWWGGSDTD-NH2
B2: 17-R8 (…) (peptide)
peptide: Ac-EDDDWIDWGPTSDDDRRRRRRRR-NH2
B3: 16-RL-R8 (…) (peptide)
peptide: Ac-EDDDWIDWYDSDDDEAAAKRRRRRRRR-NH2
B4: R8-FL-17 (…) (peptide)
peptide: Ac-RRRRRRRRGGGGSEDDDWIDWGPTSDDD-NH2
B5: 17-FL-R8 (…) (peptide)
peptide: Ac-EDDDWIDWGPTSDDDGGGGSRRRRRRRR-NH2
B6: 17-RL-R8 (…) (peptide)
peptide: Ac-EDDDWIDWGPTSDDDEAAAKRRRRRRRR-NH2
B7: … (peptide)
peptide: Ac-EDDSDVWWGGADWD-NH2
B8: R4-21 (Ac-RRRREDDD(2Nala)…-NH2) (peptide)
peptide: Ac-RRRREDDD[2Nal]IDWGPTSDDD-NH2
SMILES: CC[C@H](C)[C@H](NC(=O)[C@H](Cc1ccc2ccccc2c1)NC(=O)[C@H](CC(=O)O)NC(=O)[C@H](CC(=O)O)NC(=O)[C@H](CC(=O)O)NC(=O)[C@H](CCC(=O)O)NC(=O)[C@H](CCCNC(=N)N)NC(=O)[C@H](CCCNC(=N)N)NC(=O)[C@H](CCCNC(=N)N)NC(=O)[C@H](CCCNC(=N)N)NC(C)=O)C(=O)N[C@@H](CC(=O)O)C(=O)N[C@@H](Cc1c[nH]c2ccccc12)C(=O)NCC(=O)N1CCC[C@H]1C(=O)N[C@H](C(=O)N[C@@H](CO)C(=O)N[C@@H](CC(=O)O)C(=O)N[C@@H](CC(=O)O)C(=O)N[C@@H](CC(=O)O)C(N)=O)[C@@H](C)O
B9: … (peptide)
peptide: Ac-EDDSDVWWGGADED-NH2
B10: … (peptide)
peptide: Ac-EDDSIVWWGGADTD-NH2
B11: … (peptide)
peptide: Ac-EDDSDVDWGGADTD-NH2
B12: 16-FL-R8 (…) (peptide)
peptide: Ac-EDDDWIDWYDSDDDGGGGSRRRRRRRR-NH2
B13: … (peptide)
peptide: Ac-EDDSDVWWGGYDTD-NH2
B14: … (peptide)
peptide: Ac-EDDSDVYWGGADTD-NH2
B15: … (peptide)
peptide: Ac-EDDSDVIWGGADTD-NH2
B16: R8-RL-16 (…) (peptide)
peptide: Ac-RRRRRRRREAAAKEDDDWIDWYDSDDD-NH2
B17: … (peptide)
peptide: Ac-EDDSFVWWGGADTD-NH2
B18: R8-RL-17 (…) (peptide)
peptide: Ac-RRRRRRRREAAAKEDDDWIDWGPTSDDD-NH2
B19: R8-17 (Ac-…-NH2) (peptide)
peptide: Ac-RRRRRRRREDDDWIDWGPTSDDD-NH2
B20: … (peptide)
peptide: Ac-EDDSYVWWGGADTD-NH2
B21: 16-R8 (…) (peptide)
peptide: Ac-EDDDWIDWYDSDDDRRRRRRRR-NH2
B22: … (peptide)
peptide: Ac-EDDSDVWWGPADTD-NH2
B23: … (peptide)
peptide: Ac-EDDSDIWWGGADTD-NH2
B24: … (peptide)
peptide: Ac-EDDSDVWWDGADTD-NH2
B25: … (peptide)
peptide: Ac-EDDSDVWWGGADHD-NH2
B26: R8-FL-16 (…) (peptide)
peptide: Ac-RRRRRRRRGGGGSEDDDWIDWYDSDDD-NH2
B27: … (peptide)
peptide: Ac-EDDSDVWWGGHDTD-NH2
B28: … (peptide)
peptide: Ac-EDDSDVWWHGADTD-NH2
B29: … (peptide)
peptide: Ac-ETEFIAWGPTGDEF-NH2
B30: … (peptide)
peptide: Ac-ETEFIAWGPTGDEP-NH2
B31: … (peptide)
peptide: Ac-ETEFIAWGPTGDWD-NH2
B32: … (peptide)
peptide: Ac-ETEFIAWGPTGYED-NH2
B33: … (peptide)
peptide: Ac-EVEFIAWGPTGDED-NH2
B34: … (peptide)
peptide: Ac-ETEFIAWHPTGDED-NH2
B35: … (peptide)
peptide: Ac-ETEFIAWGPTHDED-NH2
B36: … (peptide)
peptide: Ac-ETEFIAWGPTGDEV-NH2
B37: … (peptide)
peptide: Ac-ETEFIAWGPTGDDD-NH2
B38: … (peptide)
peptide: Ac-ETEFIAWGPTGDFD-NH2
B39: … (peptide)
peptide: Ac-ETEFIAWYPTGDED-NH2
B40: peptide 26 (peptide)
peptide: Ac-ETEFIDWGPTGDED-NH2
B41: … (peptide)
peptide: Ac-ETEFIAWGPTGDYD-NH2
B42: … (peptide)
peptide: Ac-ETEFIVWGPTGDED-NH2
B43: … (peptide)
peptide: Ac-NTEFIAWGPTGDED-NH2
B44: … (peptide)
peptide: Ac-ETSFIAWGPTGDED-NH2
B45: … (peptide)
peptide: Ac-ETEFIAWGPHGDED-NH2
B46: … (peptide)
peptide: Ac-ETEFIAWGPTGDEW-NH2
B47: … (peptide)
peptide: Ac-ETEFIAWGPTGDEQ-NH2
B48: … (peptide)
peptide: Ac-ETEFIAWGPTRDED-NH2
B49: … (peptide)
peptide: Ac-ETEFIAWGPTGDPD-NH2
B50: … (peptide)
peptide: Ac-ETEWIAWGPTGDED-NH2
B51: … (peptide)
peptide: Ac-ETEFIAWGPTGHED-NH2
B52: … (peptide)
peptide: Ac-ETEFIHWGPTGDED-NH2
B53: … (peptide)
peptide: Ac-ETDFIAWGPTGDED-NH2
B54: … (peptide)
peptide: Ac-ETEFIAWGPTGDRD-NH2
B55: … (peptide)
peptide: Ac-ETEFIAWGPFGDED-NH2
B56: … (peptide)
peptide: Ac-ETEFIAWGPSGDED-NH2
B57: … (peptide)
peptide: Ac-ETEYIAWGPTGDED-NH2
B58: … (peptide)
peptide: Ac-RTEFIAWGPTGDED-NH2
B59: … (peptide)
peptide: Ac-ETEFIAWGPTGDEN-NH2

For one test, the target named is Sushi domains (SD1/2) protein of the GABAB1a (GB1a) subunit, recombinant. Kind of test: FP competition.
Chain of Sushi domains (SD1/2) protein of the GABAB1a (GB1a) subunit, recombinant (Q9Z0U4 29-158): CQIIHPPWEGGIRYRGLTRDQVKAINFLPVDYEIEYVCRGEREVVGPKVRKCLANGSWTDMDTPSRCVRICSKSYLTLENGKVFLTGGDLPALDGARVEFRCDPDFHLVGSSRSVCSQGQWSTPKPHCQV
Turning to B1, the Ki was 204 nM.
As to B2, the inhibition constant (Ki) amounted to 123 nM.
B3: the Ki came to 100 nM.
For B4, the Ki is 140 nM.
Take B5: the Ki is 147 nM.
Still for that read-out and setting: for B6 the value was 139 nM; for B7, 459 nM; for B8, 13 nM.
Regarding B9, the Ki was 337 nM.
With B10, the Ki worked out at 243 nM.
Turning to B11, the Ki was found to be 4800 nM.
Still for that read-out and setting: as for B12, the figure is 118 nM; as for B13, 255 nM; as for B14, 3600 nM.
In the case of B15, the Ki came out at 951 nM.
On the same count and under the same terms, for B16 the value was 314 nM; for B17, 142 nM.
Regarding B18, the Ki is 105 nM.
In the case of B19, the Ki worked out at 58 nM.
B20: the Ki was found to be 191 nM.
For B21, the Ki was 65 nM.
With B22, the Ki was found to be 332 nM.
For the molecule B23, the Ki stood at 401 nM.
For the molecule B24, the Ki is 429 nM.
B25: the Ki was determined as 739 nM.
B26: the Ki came out at 280 nM.
As for B27, the Ki is 346 nM.
The same measure, in the same setting: for B28 the value was 270 nM.

In the next test the target is Sushi domains (SD1/2) protein of GABAB1a (GB1a). Kind of test: FP competition vs TAMRA AJAP-1probe.
Chain of Sushi domains (SD1/2) protein of GABAB1a (GB1a) (Q9Z0U4 29-158): as above
B29: the Ki is 48 nM.
Molecule B30 yielded a Ki of 41 nM.
With B31, the Ki worked out at 54 nM.
B32 yielded a Ki of 41 nM.
On to B33, for which the Ki was determined as 28 nM.
The molecule B34 displayed a Ki of 240 nM.
In the case of B35, the Ki came to 30 nM.
Molecule B36 displayed a Ki of 40 nM.
Take B37: the Ki amounted to 27 nM.
Molecule B38 registered a Ki of 41 nM.
Same read-out and setting: for B39 the value was 199 nM; for B40, 9 nM.
Turning to B41, the Ki is 40 nM.
Regarding B42, the Ki is 30 nM.
On the same count and under the same terms, as for B43, the figure is 62 nM; as for B44, 34 nM.
Turning to B45, the Ki turned out to be 38 nM.
B46 gave a Ki of 54 nM.
Same read-out and setting: as for B47, the figure is 37 nM; as for B48, 32 nM; as for B49, 34 nM.
B50 gave a Ki of 35 nM.
B51 had a Ki of 60 nM.
Still for that read-out and setting: as for B52, the figure is 24 nM; as for B53, 26 nM; as for B54, 54 nM.
As for B55, the Ki stood at 40 nM.
B56: the Ki turned out to be 32 nM.
Molecule B57 returned a Ki of 18 nM.
The same measure, in the same setting: for B58 the value was 87 nM; for B59, 43 nM.
